In patent US20170240642A1 (ALLIGATOR BIOSCIENCE, published 2017) one finds koff data, which are given here for two molecules.

The target in the experiment is T1, CD40hfc (R&Dsystems, USA) (human, UniProt P25942 21-193).
T1 construct: Bought reagent, amine-coupled to the Biacore chip; also called immobilized CD40 receptor; not shown: Fc part of the bought CD40hfc
Nature of the experiment: SPR, Biacore 3000; CD40hfc amine-coupled to chip, antibody as analyte; 37 C, pH 7.3. The method, then:
The affinity measures of purified antibodies by surface plasmon resonance using the Biacore 3000 instrument was performed according to manufacturer's protocols.
The CD40hfc (R&Dsystems, USA) was immobilized to the BIAcore sensorchip, CMS, using conventional amine coupling. The anti-CD40 antibodies of the invention, (serially diluted 1/3 from 1-0.012 nM) were analysed for binding in HBS-P (GE, BR-1003-68) at a flow rate of 30 μl/min at 37° C. and pH 7.3. The association was followed for 3 minutes and the dissociation for 10 minutes. Regeneration was performed twice using 50 mM NaOH for 30 seconds. The kinetic parameters and the affinity constants were calculated using BIAevaluation 4.1 software.

Substitutions are numbered along the chain they refer to.

T1 sequence (P25942 21-193): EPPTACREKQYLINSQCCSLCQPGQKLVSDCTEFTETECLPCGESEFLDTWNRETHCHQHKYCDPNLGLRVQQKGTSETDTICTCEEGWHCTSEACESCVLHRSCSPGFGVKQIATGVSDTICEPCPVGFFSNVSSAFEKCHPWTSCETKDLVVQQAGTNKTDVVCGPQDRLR

B1: Antibody clone F6 (antibody, human IgG1, lambda, V domains shown)
VH: EVQLLESGGGLVQPGGSLRLSCAASGFTFSTYGMHWVRQAPGKGLEWLSYISGGSSYIFYADSVRGRFTISRDNSENALYLQMNSLRAEDTAVYYCARILRGGSGMDLWGQGTLVTVSS
VL: QSVLTQPPSASGTPGQRVTISCTGSSSNIGAGYDVYWYQQLPGTAPKLLIYRNINRPSGVPDRFSGSKSGTSASLAISGLRSEDEADYYCAAWDGSLLGLVFGGGTKLTVLG
notes: Tested as purified antibody
As to B1, the koff worked out at 0.00032 s⁻¹.

B2: Antibody clone F9 (antibody, human IgG1, lambda, V domains shown)
VH: B1 VH
VL: B1 VL with D34G, R52G, S96T, L98T, V101L
notes: Tested as purified antibody
For the molecule B2, the koff stood at 0.00012 s⁻¹.
